Results from PMC6494084.
Where two headings read alike, the source gives them in different places.

What was measured:
Experiment in all cases: X-ray crystallography
[1] = molecular target: T1, DNA polymerase beta (pol β), wild-type (human, UniProt P06746 1-335)
[2] = molecular target: T1, DNA polymerase beta (pol β), wild-type; remark: listed apart in the source
[3] = molecular target: T1, DNA polymerase beta (pol β), wild-type; remark: listed apart in the source

B1: 1-nt gapped DNA, templating A (dsDNA)
DNA 1: CCGACAGCGCATCAGC
DNA 2: GCTGATGCGC
DNA 3: GTCGC
modifications: 5'-phosphate on downstream strand
- binding result [1]: binds

B2: 1-nt gapped DNA, templating G (dsDNA)
DNA 1: CCGACGGCGCATCAGC
DNA 2: GCTGATGCGC
DNA 3: GTCGC
modifications: 5'-phosphate on downstream strand
- binding result [2]: binds

B3: 1-nt gapped DNA, templating C (dsDNA)
DNA 1: CCGACCGCGCATCAGC
DNA 2: GCTGATGCGC
DNA 3: GTCGC
modifications: 5'-phosphate on downstream strand
- binding result [3]: binds
